Our source for the Kd and stoichiometry N values is article PMC11090050.

In the test the target is MBP-Rubicon RH (Rubicon Homology domain of Rubicon, wild type) (UniProt Q92622). Put plainly: ITC; MBP-Rubicon RH (80 µM) in the chamber, RAB7A (800 µM) in the syringe; 13 injections at 25°C; 50 mM HEPES 7.5, 150 mM NaCl, 2 mM MgCl2, 10 mM TCEP; simple single-binding-site fit.
Sequence of UniProt Q92622 (Q92622 699-949): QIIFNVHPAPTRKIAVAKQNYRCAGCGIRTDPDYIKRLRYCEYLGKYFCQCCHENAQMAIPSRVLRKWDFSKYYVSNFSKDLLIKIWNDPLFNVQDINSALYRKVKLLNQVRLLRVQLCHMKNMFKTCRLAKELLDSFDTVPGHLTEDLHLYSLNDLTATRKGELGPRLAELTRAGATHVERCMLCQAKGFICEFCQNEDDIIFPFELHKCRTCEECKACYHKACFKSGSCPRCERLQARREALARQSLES

By Kd is commonly meant the equilibrium constant for the complex coming apart. By stoichiometry N is commonly meant the number of molecules, sites or subunits per partner or assembly. Substance “RAB7A (recombinantly purified, unlabelled, as used for ITC) (from UniProt P51149 2-182) (natural protein)” had a Kd of 1700 nM and a stoichiometry N of 0.7.
